B1: KEX2-SOL (soluble form of the yeast endoprotease KEX2, amino acids 1-675) (protein)
chain: LVSSQQIPLKDHTSRQYFAVESNETLSRLEEMHPNWKYEHDVRGLPNHYVFSKELLKLGKRSSLEELQGDNNDHILSVHDLFPRNDLFKRLPVPAPPMDSSLLPVKEAEDKLSINDPLFERQWHLVNPSFPGSDINVLDLWYNNITGAGVVAAIVDDGLDYENEDLKDNFCAEGSWDFNDNTNLPKPRLSDDYHGTRCAGEIAAKKGNNFCGVGVGYNAKISGIRILSGDITTEDEAASLIYGLDVNDIYSCSWGPADDGRHLQGPSDLVKKALVKGVTEGRDSKGAIYVFASGNGGTRGDNCNYDGYTNSIYSITIGAIDHKDLHPPYSEGCSAVMAVTYSSGSGEYIHSSDINGRCSNSHGGTSAAAPLAAGVYTLLLEANPNLTWRDVQYLSILSAVGLEKNADGDWRDSAMGKKYSHRYGFGKIDAHKLIEMSKTWENVNAQTWFYLPTLYVSQSTNSTEETLESVITISEKSLQDANFKRIEHVTVTVDIDTEIRGTTTVDLISPAGIISNLGVVRPRDVSSEGFKDWTFMSVAHWGENGVGDWKIKVKTTENGHRIDFHSWRLKLFGESIDSSKTETFVFGNDKEEVEPAATESTVSQYSASSTSISISATSTSSISIGVETSAIPQTTTASTDPDSDPNTPKKLSSPRQ
B2: human PC5 (PC5A), expressed from pSYN-PC5-003 (protein)
chain: RVYTNHWAVKIAGGFPEANRIASKYGFINIGQIGALKDYYHFYHSRTIKRSVISSRGTHSFISMEPKVEWIQQQVVKKRTKRDYDFSRAQSTYFNDPKWPSMWYMHCSDNTHPCQSDMNIEGAWKRGYTGKNIVVTILDDGIERTHPDLMQNYDALASCDVNGNDLDPMPRYDASNENKHGTRCAGEVAAAANNSHCTVGIAFNAKIGGVRMLDGDVTDMVEAKSVSFNPQHVHIYSASWGPDDDGKTVDGPAPLTRQAFENGVRMGRRGLGSVFVWASGNGGRSKDHCSCDGYTNSIYTISISSTAESGKKPWYLEECSSTLATTYSSGESYDKKIITTDLRQRCTDNHTGTSASAPMAAGIIALALEANPFLTWRDVQHVIVRTSRAGHLNANDWKTNAAGFKVSHLYGFGLMDAEAMVMEAEKWTTVPRQHVCVESTDRQIKTIRPNSAVRSIYKASGCSDNPNRHVNYLEHVVVRITITHPRRGDLAIYLTSPSGTRSQLLANRLFDHSMEGFKNWEFMTIHCWGERAAGDWVLEVYDTPSQLRNFKTPGKLKEWSLVLYGTSVQPYSPTNEFPKVERFRYSRVEDPTDDYGTEDYAGPCDPECSEVGCDGPGPDHCNDCLHYYYKLKNNTRICVSSCPPGHYHADKKRCRKCAPNCESCFGSHGDQCMSCKYGYFLNEETNSCVTHCPDGSYQDTKKNLCRKCSENCKTCTEFHNCTECRDGLSLQGSRCSVSCEDGRYFNGQDCQPCHRFCATCAGAGADGCINCTEGYFMEDGRCVQSCSISYYFDHSSENGYKSCKKCDISCLTCNGPGFKNCTSCPSGYLLDLGMCQMGAICKDATEESWAEGGFCMLVKKNNLCQRKVLQQLCCKTCTFQG
B3: PC7-SOL (soluble form of PC7, amino acids 1-663) (protein)
chain: LAGTGGPDGQGTGGPSWAVHLESLEGDGEEETLEQQADALAQAAGLVNAGRIGELQGHYLFVQPAGHRPALEVEAIRQQVEAVLAGHEAVRWHSEQRLLRRAKRSVHFNDPKYPQQWHLNNRRSPGRDINVTGVWERNVTGRGVTVVVVDDGVEHTIQDIAPNYSPEGSYDLNSNDPDPMPHPDVENGNHHGTRCAGEIAAVPNNSFCAVGVAYGSRIAGIRVLDGPLTDSMEAVAFNKHYQINDIYSCSWGPDDDGKTVDGPHQLGKAALQHGVIAGRQGFGSIFVVASGNGGQHNDNCNYDGYANSIYTVTIGAVDEEGRMPFYAEECASMLAVTFSGGDKMLRSIVTTDWDLQKGTGCTEGHTGTSAAAPLAAGMIALMLQVRPCLTWRDVQHIIVFTATRYEDRRAEWVTNEAGFSHSHQHGFGLLNAWRLVNAAKIWTSVPYLASYVSPVLKENKAIPQSPRSLEVLWNVSRMDLEMSGLKTLEHVAVTVSITHPRRGSLELKLFCPSGMMSLIGAPRSMDSDPNGFNDWTFSTVRCWGERARGTYRLVIRDVGDESFQVGILRQWQLTLYGSVWSAVDIRDRQRLLESAMSGKYLHDDFALPCPPGLKIPEEDGYTITPN

Key:
[1] = target: N297A version of FIX-Fc retaining the propeptide
[2] = target: proFIX-Fc (FIX-Fc retaining the FIX propeptide; dimer or monomer form not given)
[3] = target: proFIX-Fc monomer-dimer hybrid (FIX-Fc monomer retaining the propeptide)

Protein	propeptide processing, Fc and propeptide Western blots, HEK 293 transient transfection (FIG. 8 lane 4, N297A Fc) [1]	Propeptide Processing (Western blotting), CHO, transient transfection [2]	Propeptide Processing (Western blotting), HEK, transient transfection [2]	Propeptide Processing (Western blotting), CHO, stable transfection [2]	Propeptide Processing (Western blotting), HEK, stable transfection [2]	peptide mapping (tryptic digest, LC/MS) for the propeptide indicator peptide (PIP), HEK stable line [3]	Propeptide Processing (Western blotting), HEK, stable transfection [1]	peptide mapping (tryptic digest, LC/MS) for the propeptide indicator peptide (PIP), CHO stable line [2]
B1	FIX-Fc cotransfected with KEX2-SOL is not processed, as can be seen by the presence of propeptide in this material (lanes 3 and 4, bands present on both blots)	processes (cryptic cleavage)	does not fully process					
B2		processes	processes	processes	processes	undetectable in purified FIX-Fc monomer cotransfected with PC5		
B3		processes	does not fully process	does not fully process			does not fully process	ProFIX-Fc was also found in CHO FIX-Fc protein that was cotransfected with PC7, although possibly at lower levels as indicated in the UV trace

Reference: patent US20070259402
